Molecular target: T1, Long neurotoxin 1 (3L21_OXYSC) from O. scutellatus scutellatus (coastal taipan), recombinant long 3FTX (Oxyuranus scutellatus scutellatus)
T1 chain: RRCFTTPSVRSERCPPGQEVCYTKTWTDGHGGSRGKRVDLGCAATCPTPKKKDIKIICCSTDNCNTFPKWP
Experiment: SPR

B1: Centi-3FTX-D09 (antibody, V domains shown)
VH: EVQLVESGGGFVQPGGSLRLSCAASGFTFSNFDMHWVRQSPGKGLEWVSGLDHSGGAHYAGSVKGRFTISREDAKNSLDLQMNNLRVDDTAVYFCVRGTLYHYTSGSYYSDAFDIWGQGTLVTVSS
VL: EIVLTQSPSSLSASVGDRVTITCQASQDISNYLNWYQQKPGKAPKLLIYAASSLESGVPSRFSGSGSGTDFTLTISSQQPEDFATYYCQQANSFPYTFGQGTKVEIK
  Kd: 0.49 nM
